Results taken from patent publication US11279747 (UNIVERSITAT ZURICH, dated 2022).

How the values were obtained:
Experiment in all cases: ELISA, receptor coated at 10 µg/mL, anti-human Fc-HRP
[1] = target: T1, A30-β2m-Fc (human, UniProt P61769 21-119)
T1 construct: HLA-Fc heavy chain with beta2m, made in CHO cells; also called HLA-β2m-Fc; control MHC-Ia heterotrimer; not shown: human IgG4 Fc (human IgG4-Fc vector, InvivoGen)
Description: (§1) Competition ELISA assays were performed using Maxisorp (Nunc, Switzerland) 96 well plates coated with 10 μg/mL of selected leukocyte receptors (human KIR3DL1, human KIR3DL2, human KIR3DL3, human LILRB1, human LILRB2, human PTPRJ and mouse Pirb) purchased from Creative Biomart. Receptors were incubated for ON 4° C., blocked with 5% milk powder-TBS 2 hrs. HLA_2-Fc selected constructs (A25_2-Fc, A30_2-Fc, B2705_2-Fc, B53_2-Fc, B57_2-Fc, B58_2-Fc, C08_2-F, and C12_2-Fc) and their controls (A25-β2m-Fc, A30-β2m-Fc, B2705-β2m-Fc, B53-β2m-Fc, B57-β2m-Fc, B58-β2m-Fc, C08-β2m-Fc and C12-β2m-Fc) and isotype IgG4 were added at 10 μg/mL for 2 hrs RT. HRP-conjugated antibodies against human Fc were used as detectors.

[2] = target: T2, B58-β2m-Fc (human, UniProt P61769 21-119, limits assumed)
T2 construct: HLA-Fc heavy chain with beta2m, made in CHO cells; also called HLA-β2m-Fc; control MHC-Ia heterotrimer; not shown: human IgG4 Fc (human IgG4-Fc vector, InvivoGen)
T2 sequence (P61769 21-119 limits assumed): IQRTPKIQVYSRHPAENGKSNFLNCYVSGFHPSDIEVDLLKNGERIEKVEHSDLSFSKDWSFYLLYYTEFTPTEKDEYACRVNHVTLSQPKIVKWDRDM
Description: as §1

[3] = target: T3, B53-β2m-Fc (human, UniProt P61769 21-119, limits assumed)
T3 construct: HLA-Fc heavy chain with beta2m, made in CHO cells; also called HLA-β2m-Fc; control MHC-Ia heterotrimer; not shown: human IgG4 Fc (human IgG4-Fc vector, InvivoGen)
T3 sequence (P61769 21-119 limits assumed): as above
Description: as §1

[4] = target: T4, A25-β2m-Fc (human, UniProt P61769 21-119, limits assumed)
T4 construct: HLA-Fc heavy chain with beta2m, made in CHO cells; also called HLA-β2m-Fc; control MHC-Ia heterotrimer; not shown: human IgG4 Fc (human IgG4-Fc vector, InvivoGen)
T4 sequence (P61769 21-119 limits assumed): as above
Description: as §1

[5] = target: T5, B57-β2m-Fc (human, UniProt P61769 21-119, limits assumed)
T5 construct: HLA-Fc heavy chain with beta2m, made in CHO cells; also called HLA-β2m-Fc; control MHC-Ia heterotrimer; not shown: human IgG4 Fc (human IgG4-Fc vector, InvivoGen)
T5 sequence (P61769 21-119 limits assumed): as above
Description: as §1

[6] = target: T6, B27-β2m-Fc (human, UniProt P61769 21-119)
T6 construct: HLA-Fc heavy chain with beta2m, made in CHO cells; also called B2705-β2m-Fc; HLA-β2m-Fc; not shown: human IgG4 Fc (human IgG4-Fc vector, InvivoGen)
T6 sequence (P61769 21-119 limits assumed): as above
Description: as §1

Measured: binding result

T1 sequence (P61769 21-119 limits assumed): as above

B1: human KIR3DL2 (receptor, UniProt P43630 22-340, looked up)
chain: LMGGQDKPFLSARPSTVVPRGGHVALQCHYRRGFNNFMLYKEDRSHVPIFHGRIFQESFIMGPVTPAHAGTYRCRGSRPHSLTGWSAPSNPLVIMVTGNHRKPSLLAHPGPLLKSGETVILQCWSDVMFEHFFLHREGISEDPSRLVGQIHDGVSKANFSIGPLMPVLAGTYRCYGSVPHSPYQLSAPSDPLDIVITGLYEKPSLSAQPGPTVQAGENVTLSCSSWSSYDIYHLSREGEAHERRLRAVPKVNRTFQADFPLGPATHGGTYRCFGSFRALPCVWSNSSDPLLVSVTGNPSSSWPSPTEPSSKSGICRHLH
notes: Bought protein coated on the ELISA plate; also called hu KIR3DL2
no binding (tested: 10 µg/mL): [1] | [2] | [3] | [4] | [5] | [6]
